Tests used:
[1] = biological target: T1, CrtRPn (CrtR from P. nicotinovorans) (Paenarthrobacter nicotinovorans, UniProt A0ABT9TUN6); assay: EMSA, inhibition of CrtR binding to own crtR promoter DNA; settings: 100-650 uM GGPP, 15 min preincubation before DNA; pH 7.5, 10 mM MgCl2, room temperature
T1 construct: gene J2T10_004447; full length, N-terminal His-tag (pET16b) kept, E. coli BL21(DE3), Ni-NTA; gene divergent to idi, not the mmpL-linked paralog
T1 sequence (A0ABT9TUN6 1-195): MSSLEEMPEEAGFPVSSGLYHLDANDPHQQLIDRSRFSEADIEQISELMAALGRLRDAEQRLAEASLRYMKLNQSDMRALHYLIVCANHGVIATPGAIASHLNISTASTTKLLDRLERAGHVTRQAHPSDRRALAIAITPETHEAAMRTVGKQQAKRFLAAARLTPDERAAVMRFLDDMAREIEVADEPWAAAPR

[2] = biological target: T2, CrtRCc (CrtR from C. callunae) (Corynebacterium callunae, UniProt M1UIJ0); assay: EMSA, inhibition of CrtR binding to own crtR promoter DNA and crtE promoter DNA; settings: 100-650 uM GGPP, 15 min preincubation before DNA; pH 7.5, 10 mM MgCl2, room temperature
T2 construct: gene H924_00295; full length, N-terminal His-tag (pET16b) kept, E. coli BL21(DE3), Ni-NTA
T2 sequence (M1UIJ0 1-194): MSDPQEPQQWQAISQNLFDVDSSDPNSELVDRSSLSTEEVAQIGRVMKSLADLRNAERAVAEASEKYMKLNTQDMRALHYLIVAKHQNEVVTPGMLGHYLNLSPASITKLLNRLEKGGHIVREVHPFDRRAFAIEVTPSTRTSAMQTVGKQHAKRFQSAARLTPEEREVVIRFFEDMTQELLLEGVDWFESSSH

[3] = biological target: T3, CrtR (CrtRCg) (Corynebacterium glutamicum ATCC 13032) (UniProt Q8NSP1); assay: EMSA; settings: 50 mM Tris-HCl pH 7.5, 10% glycerol, 50 mM KCl, 10 mM MgCl2, 0.5 mM EDTA; 20 uL, 30-90 ng DNA, 30 min at room temperature; 78 bp cg2228 upstream fragment …
T3 sequence: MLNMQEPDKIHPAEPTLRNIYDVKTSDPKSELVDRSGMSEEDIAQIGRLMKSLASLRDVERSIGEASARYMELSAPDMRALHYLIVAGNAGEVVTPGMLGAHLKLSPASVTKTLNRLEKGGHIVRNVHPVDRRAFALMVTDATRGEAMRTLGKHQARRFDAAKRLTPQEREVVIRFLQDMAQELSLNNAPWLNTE

[4] = test system: T4, CrtR ortholog (CrtRPc) (Pseudarthrobacter chlorophenolicus DSM 12829), ORF:f49de8fb; assay: EMSA; settings: 50 mM Tris-HCl pH 7.5, 10% glycerol, 50 mM KCl, 10 mM MgCl2, 0.5 mM EDTA; 20 uL, 30-90 ng DNA, 30 min at room temperature; 78 bp cg2228 upstream fragment …
T4 sequence: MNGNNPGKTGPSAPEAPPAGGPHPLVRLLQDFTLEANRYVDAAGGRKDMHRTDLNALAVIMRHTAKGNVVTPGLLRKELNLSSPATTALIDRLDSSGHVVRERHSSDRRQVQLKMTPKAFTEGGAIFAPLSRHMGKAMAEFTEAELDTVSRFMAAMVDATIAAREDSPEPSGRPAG

[5] = biological target: T5, CrtR (CrtRCg) (Corynebacterium glutamicum ATCC 13032, UniProt Q8NSP1 1-195); assay: EMSA; strong binding; 50 mM Tris-HCl pH 7.5, 10% glycerol, 50 mM KCl, 10 mM MgCl2, 0.5 mM EDTA; 20 uL, 30-90 ng DNA, 30 min at room temperature; 78 bp cg2228 upstream fragment (negative control) in every sample; GGPP preincubated 15 min; settings: protein: recombinant; tags: N-terminal His-tag (pET16b), not removed; chain copies: 2; blunt
T5 sequence: T3 sequence

[6] = biological target: T6, CrtR ortholog (CrtRPn) (Paenarthrobacter nicotinovorans DSM 420, UniProt A0ABT9TUN6 1-195); assay: EMSA; no GGPP; not all DNA shifted; 50 mM Tris-HCl pH 7.5, 10% glycerol, 50 mM KCl, 10 mM MgCl2, 0.5 mM EDTA; 20 uL, 30-90 ng DNA, 30 min at room temperature; 78 bp cg2228 upstream fragment (negative control) in every sample; GGPP preincubated 15 min; settings: protein: recombinant; tags: N-terminal His-tag (pET16b), not removed; chain copies: 2; blunt
T6 sequence: T1 sequence (A0ABT9TUN6 1-195)

Molecule: CC(C)=CCC/C(C)=C/CC/C(C)=C/CC/C(C)=C/COP(=O)(O)OP(=O)(O)O [GGPP]
- EMSA, inhibition of CrtR binding to own crtR promoter DNA [1]: GGPP inhibited the interaction between the tested CrtR proteins and their target DNA
- EMSA, inhibition of CrtR binding to own crtR promoter DNA and crtE promoter DNA [2]: GGPP inhibited the interaction between the tested CrtR proteins and their target DNA

Molecule: TGCCTTCCATGCGGATGGTCCACGCGGGACAAAGCGGAGTAGGATTGGTTCCACATTAGACTATCTCCATGATAGAGATAAGTGCCAGTCAAGCTTTTTCAACGGGGGCCTCCGCCGGGGGCTTCCACGGCTGAGCCAGGTAATGCCAAGGCAGCTGAAGTAATATCCCTCAGGGCCTGTGCGCAAAGACGGACGGCCCCACGAACTCCAGGAGGTGACCATGAACGGCAACAATCCGGGCA (double strand) [P. chlorophenolicus crtR-mmpl intergenic region (PcrtR)]
- binding [3]: binds more weakly
- binding [4]: binds

B1: P. nicotinovorans crtR-idi intergenic region (dsDNA)
DNA 1: CATACTGCGCCTTCCTCCTGCAACCTGAGTCTTTACAGCAGCCCGAATATTGCTAGACAAGCTAGAAGAAAGGCTACCATGTAGGAAGTTAGGTGTAACATACTCAGCATG
DNA 2: CATGCTGAGTATGTTACACCTAACTTCCTACATGGTAGCCTTTCTTCTAGCTTGTCTAGCAATATTCGGGCTGCTGTAAAGACTCAGGTTGCAGGAGGAAGGCGCAGTATG
- binding result [5]: binds
- binding result [6]: binds

B2: C. callunae crtR-mmpl intergenic region (dsDNA)
DNA 1: CGCAAGATGCCGGGAAATACGCTCTGAAGAGGGGTTTTCATGGCCTTAAACCTTTATATATGCAAATTGTTAAATTATCCAACAGTGTAAGGTATCCCATTTTCTTAAAAAAAGGGTTAATATCCATCTATGTCCGATCCGCAA
DNA 2: TTGCGGATCGGACATAGATGGATATTAACCCTTTTTTTAAGAAAATGGGATACCTTACACTGTTGGATAATTTAACAATTTGCATATATAAAGGTTTAAGGCCATGAAAACCCCTCTTCAGAGCGTATTTCCCGGCATCTTGCG
- binding result [5]: binds

Reference: article PMC7432914, “Corynebacterium glutamicum CrtR and Its Orthologs in Actinobacteria: Conserved Function and Application as Genetically Encoded Biosensor for Detection of Geranylgeranyl Pyrophosphate” (International Journal of Molecular Sciences, 2020)
